Measured values from PMC12435366, “Maleic anhydride derived diphosphines: adaptable chelators for receptor-targeted ^99mTc, ^64Cu and ^188Re radiotracers” (Chemical Science, 2025).

Experiment: in vivo
Design: species or system mice
Conditions: male, athymic nude (Crl:NU(NCr)-Foxn1nu), mouse, iv, total radioactivity
Experimental: The biodistribution of [^99mTcO2(DP^An-PSMAt)2]^+ and [^99mTcO2(DP^MEP-PSMAt)2]^+ was studied using SPECT/CT imaging and ex vivo biodistribution methods. In these studies, [^99mTcO2(DP^An-PSMAt)2]^+ and [^99mTcO2(DP^MEP-PSMAt)2]^+ were used directly from kit-based formulations, without further purification, mimicking procedures used in clinical radiopharmacies and nuclear medicine departments. Mice were injected with [^99mTcO2(DP^An-PSMAt)2]^+ or [^99mTcO2(DP^MEP-PSMAt)2]^+ (4–5 MBq), containing 3 μg (2.6 nmol) of DP^An-PSMAt or 3.5 μg (2.6 nmol) of (DP^MEP-PSMAt) via the tail-vein, and culled 2 h post-injection, followed by dissection, organ/tissue weighing and counting.
The biodistribution of [^99mTcO2(DP^An-PSMAt)2]^+ and [^99mTcO2(DP^MEP-PSMAt)2]^+ was further studied in (i) male SCID/Beige mice bearing DU145-PSMA+ prostate cancer xenografts (Fig. 8) and (ii) male nude mice bearing PSMA-expressing LNCaP prostate cancer xenografts (see SI). […]
4.10 In vivo imaging and biodistribution (DU145-PSMA+ and LNCaP)
Preparation of tumour-bearing mice: All animal experiments were ethically reviewed by an Animal Welfare & Ethical Review Board at either King’s College London or Bart’s Cancer Institute and carried out in accordance with the Animals (Scientific Procedures) Act 1986 UK Home Office regulations governing animal experimentation. Subcutaneous prostate cancer xenografts were produced in SCID/beige mice (male, 7–12 weeks old) by injecting 4 × 10^6 DU145-PSMA+ or DU145 cells suspended in PBS (100 μL) on the right shoulder. Imaging and biodistribution studies were performed once a tumour had reached 5–10 mm in diameter (3–4 weeks after injection). Subcutaneous LNCaP prostate cancer xenografts were produced in athymic nude (Crl:NU(NCr)-Foxn1nu) mice (male, 6–7 weeks old) by injecting 5 × 10^6 LNCaP cells suspended in PBS:matrigel (1:1, 200 μL) on the right flank.
Biodistribution studies using 99mTc radiotracers were performed once a tumour had reached 150– 300 mm3 in volume (2–7 weeks after injection).
SCID/beige mice bearing DU145-PSMA+ prostate cancer tumour xenografts
SPECT/CT scanning and biodistribution studies: The 99mTc radiotracers (3.9–4.5 MBq, 3 mice per group, containing DPAn-PSMAt = 3.0 µg or DPMEP-PSMAt = 3.5 µg) were administered via tail vein injection under isoflurane anaesthesia. […]
in helical scanning mode). At 2 h post-injection, the animals were euthanized by cervical dislocation, organs/tissues harvested and weighed, and radioactivity counted using a gamma […]
ii. […] After scanning, the organs/tissues were harvested, weighed and radioactivity counted […]
Urine was collected and directly analysed by reverse-phase radio-HPLC (method 2). Data were analysed in GraphPad Prism 9 (version 9.1.1) and expressed as mean ± standard deviation (SD). […]

Row | SMILES | tissue uptake at 2 h (Kidney) | tissue uptake at 2 h (Liver)
1 | COc1ccc(P(/C(C(=O)O)=C(/C(=O)NCCOCCOCCOCCOCCC(=O)NCCCC[C@H](NC(=O)N[C@@H](CCC(=O)O)C(=O)O)C(=O)O)P(c2ccc(OC)cc2)c2ccc(OC)cc2)c2ccc(OC)cc2)cc1 [[^99mTcO2(DP^An-PSMAt)2]^+, metal not drawn] | 87.6 ± 13.3 %ID/g | 0.9 ± 0.15 %ID/g
2 | COCCOc1ccc(P(/C(C(=O)O)=C(/C(=O)NCCOCCOCCOCCOCCC(=O)NCCCC[C@H](NC(=O)N[C@@H](CCC(=O)O)C(=O)O)C(=O)O)P(c2ccc(OCCOC)cc2)c2ccc(OCCOC)cc2)c2ccc(OCCOC)cc2)cc1 [[^99mTcO2(DP^MEP-PSMAt)2]^+, metal not drawn] | 46.4 ± 23.2 %ID/g | 7.38 ± 3.98 %ID/g
